Test results from FireProtDB (doi:10.1016/j.jmb.2009.07.074).

B1: Cytochrome c', P00149 (parent)
chain: MKLRIATIAGLVVLGSGFAVAQTDVIAQRKAILKQMGEATKPIAAMLKGEAKFDQAVVQKSLAAIADDSKKLPALFPADSKTGGDTAALPKIWEDKAKFDDLFAKLAAAATAAQGTIKDEASLKANIGGVLGNCKSCHDDFRAKKS

Variants of: B1
Details: Rhodopseudomonas palustris (strain ATCC BAA-98 / CGA009); pH 6.5; 25 °C; GdnHCl; CD; MES 20 mM; NaCl 40 mM; structure 1A7V; whole UniProt chain shown

Variant | denaturant m value | denaturant midpoint (higher = more stable) | unfolding free energy
A87H | 4.88 kcal/mol/M | 1.39 M | 6.79 kcal/mol
A112H | 5.75 kcal/mol/M | 1.23 M | 7.07 kcal/mol
K118H | 5.28 kcal/mol/M | 1.29 M | 6.8 kcal/mol
K70H | 4.66 kcal/mol/M | 1.45 M | 6.75 kcal/mol
D24H | 5.08 kcal/mol/M | 1.46 M | 7.41 kcal/mol
K52H | 5.04 kcal/mol/M | 1.47 M | 7.41 kcal/mol
K34H | 4.91 kcal/mol/M | 1.66 M | 8.17 kcal/mol
D79H | 4.8 kcal/mol/M | 1.4 M | 6.72 kcal/mol
E94H | 5.08 kcal/mol/M | 1.13 M | 5.76 kcal/mol
K105H | 5.32 kcal/mol/M | 1.11 M | 5.89 kcal/mol
A125H | 5.59 kcal/mol/M | 1.09 M | 6.08 kcal/mol
